We go through two proteins from US20100004325.

Data set [1] has as its target T1, B-P564 peptide (biotin-labeled HIF-1α 556-575 peptide).
T1 chain: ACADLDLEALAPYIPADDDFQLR

For data set [2], the target named is T2, F-N803 peptide (FITC-labeled HIF-1α 788-822 peptide).
T2 chain: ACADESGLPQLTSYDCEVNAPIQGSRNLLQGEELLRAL

B1: GST-PHD2 (human prolyl hydroxylase 2, amino acids 184-426) (protein)
chain: QTKPLPALKLALEYIVPCMNKHGICVVDDFLGKETGQQIGDEVRALHDTGKFTDGQLVSQKSDSSKDIRGDKITWIEGKEPGCETIGLLMSSMDDLIRHCNGKLGSYKINGRTKAMVACYPGNGTGYVRHVDNPNGDGRCVTCIYYLNKDWDAKVSGGILRIFPEGKAQFADIEPKFDRLLFFWSDRRNPHEVQPAYATRYAITVWYFDADERARAKVKYLTGEKGVRVELNKPSDSVGKDVF
Take B1: the “proline hydroxylation of the peptide, MALDI mass spectrometry” value in data set [1] is given as “The proline residue was hydroxylated in the baicalein-free reactant”.

B2: His-FIH1 (human factor inhibiting HIF1, amino acids 1-349) (protein)
chain: MAATAAEAVASGSGEPREEAGALGPAWDESQLRSYSFPTRPIPRLSQSDPRAEELIENEEPVVLTDTNLVYPALKWDLEYLQENIGNGDFSVYSASTHKFLYYDEKKMANFQNFKPRSNREEMKFHEFVEKLQDIQQRGGEERLYLQQTLNDTVGRKIVMDFLGFNWNWINKQQGKRGWGQLTSNLLLIGMEGNVTPAHYDEQQNFFAQIKGYKRCILFPPDQFECLYPYPVHHPCDRQSQVDFDNPDYERFPNFQNVVGYETVVGPGDVLYIPMYWWHHIESLLNGGITITVNFWYKGAPTPKRIEYPLKAHQKVAIMRNIEKMLGEALGNPQEVGPLLNTMIKGRYN
For the protein B2, the “asparagine hydroxylation of the peptide, MALDI mass spectrometry” value in data set [2] is on record as “The asparagine residue was hydroxylated in the baicalein-free reactant”.
